In one data set the target is T1, Suc-Ala-Ala-Met-SBzl.
T1 sequence (peptide, N-terminal Suc; C-terminal thiobenzyl ester (SBzl)): AAM

A further data set addresses T2, Boc-Ala-Ala-Ser-SBzl.
T2 sequence (peptide, N-terminal Boc; C-terminal thiobenzyl ester (SBzl)): AAS

The target in the next data set is T3, Suc-Phe-Leu-Phe-SBzl.
T3 sequence (peptide, N-terminal Suc; C-terminal thiobenzyl ester (SBzl)): FLF

In the next data set the target is T4, Boc-Ala-Ala-Asp-SBzl.
T4 sequence (peptide, N-terminal Boc; C-terminal thiobenzyl ester (SBzl)): AAD

The next data set deals with T5, Boc-Ala-Ala-Leu-SBzl.
T5 sequence (peptide, N-terminal Boc; C-terminal thiobenzyl ester (SBzl)): AAL

Another data set addresses T6, Boc-Ala-Ala-Met-SBzl.
T6 sequence (peptide, N-terminal Boc; C-terminal thiobenzyl ester (SBzl)): AAM

Data set [1] can be described thus: Met-ase activity of fractions on purification from RNK granules. The data set is classed as biochemical, rat. Here is the method:
The protease of the present invention is purified to homogeneity sufficient to be sequenced and is at least about 90% pure. At this purity level, the protease has a Met-ase activity of about 156 nM/sec/μg without the intentional addition of other substances such as other proteins or carriers. The assay for measuring this activity was performed as described in the Experimental Details section. The specific activity, however, depends on the degeneracy and folding of the protease and may be as low as about 100 nM/sec/μg to as high as about 200 nM/sec/μg.
Assay of Proteases. Thiobenzylester substrates were used to measure protease activities. For monitoring enzyme activities from granules and column fractions, assays were performed at room temperature using 0.5 mM 5,5'-dithiobis-(2-nitrobenzoic acid) (DTNB) (Sigma) to detect the HSBzl leaving group (e410 =13600M-^-1 cm^-1).
BLT-esterase activity was estimated using a microtiter assay (Green, G. D. J., and Shaw, E. Anal. Biochem. 93:223-226 (1979)). Briefly, 50 μl of sample was added to 100 μl of 1 mM DTNB, made up in 10 mM Hepes, 1 mM CaCl2, 1 mM MgCl2, pH7.2. The reaction was initiated by the addition of 50 μl of BLT (Sigma) to give a final concentration of 500 μM. For Metase determinations, 50 μl of dilutions of the sample in 0.1M Hepes, 0.05M CaCl2, pH7.5 were added to 100 μl of 1 mM DTNB and the reaction was initiated by the addition of 50 μl of Boc-Ala-Ala-Met-S Benzyl (Bzl) to give a final concentration of 150 μM. The duration of the assay depended on color development, the rate of which was measured (0.D410) on a Dynatech MR 5000 microplate reader. Controls of sample and DTNB alone or DTNB and substrate alone were run. For more sensitive comparisons of enzymatic activities, peptide thiobenzyl ester substrates were used to measure protease activities. The chymase substrate Suc-Phe-Leu-Phe-SBzl was purchased from BACHEM Bioscience Inc., Philadelphia, Pa. Z-Arg-SBzl (the tryptase substrate, Kam, C-M., et al. J. Biol. Chem. 262:3444-3451 (1987)); Boc-Ala-Ala-AA-SBzl (AA=Asp, Met, Leu, Nle, or Ser) and Suc-Ala-Ala-Met-SBzl (Odake, S., et al. Biochemistry 30:2217-2227 (1991); Harper, J. W., et al. Biochemistry 23:2995-3002 (1984)) were synthesized previously. Boc-Ala-Ala-Asp-SBzl is the substrate for Asp-ase and peptide thiobenzyl esters containing Met, Leu or Nle are substrates for Met-ase SP. Assays were performed at room temperature in 0.1M, Hepes buffer, pH7.5, containing 0.01M CaCl2 and 8% Me2 SO using 0.34 mM 4,4'-dithiodipyridine (Aldrithiol-4, Aldrich Chemical Co., Milwaukee, Wis.) to detect HSBzl leaving group that reacts with 4,4'-dithiodipyridine to release thiopyridone (ε324=19800M^-1 cm^-1, Grasetti, D. R. and Murray, J. F. Arch. Biochem. Biophys. 119:41-49 (1967)). The initial rates were measured at 324 nm using a Beckman 35 spectrophotometer when 10-25 μl of an enzyme stock solution was added to a cuvette containing 2.0 ml of buffer, 150 μl of 4,4'-dithiodipyridine and 25 μl of substrate. The same volume of substrate and 4,4'-dithiodipyridine were added to the reference cell in order to compensate for the background hydrolysis rate of the substrates. Initial rates were measured in duplicate for each substrate concentration and were averaged in each case. Substrate concentrations were 100-133 μM.

B1: RNK-Met-1 (enzyme)
chain: IIGGREAVPHSRPYMVSLQNTKSHMCGGVLVHQKWVLTAAHCLSEPLQQLKLVFGLHSLHDPQDPGLTFYIKQAIKHPGYNLKYENDLALLKLDGRVKPSKNVKPLALPRKPRDKPAEGSRCSTAGWGITHQRGQLAKSLQELDLRLLDTRMCNNSRFWNGVLTDSMLCLKAGAKGQAPCKGDSGGPLVCGKGKVDGILSFSSKNCTDIFKPTVATAVAPYSSWIRKVIGRWSPQPLT
Regarding B1, the Initial Rates with Suc-Ala-Ala-Met-SBzl is 10.1 nM/s; in the data set with Boc-Ala-Ala-Ser-SBzl, 0 nM/s; with Suc-Phe-Leu-Phe-SBzl, 0 nM/s; with Boc-Ala-Ala-Asp-SBzl, 0 nM/s; with Boc-Ala-Ala-Nle-SBzl, 3.9 nM/s; in the data set with Boc-Ala-Ala-Leu-SBzl, 2.9 nM/s. This molecule registered an Initial Rates with Boc-Ala-Ala-Met-SBzl of 4.2 nM/s. In addition, the “Increase in the specific activity on purification to homogeneity from the granule extract” value in data set [1] was determined as 29 fold. The molecule further had a Rate in data set [1] (Met-ase rate, protein in assay 10, 3.4, 1.3, 0.1 μg by fraction) of 17 nM/s. Besides, in data set [1] (Met-ase, purification step), the “Specific Activity” value is 156.0 nM/sec/μg protein. For the same molecule, the Met-ase activity entry in data set [1] (protease at least about 90% pure, no added proteins or carriers) was “about 156 nM/sec/μg”. For the same molecule, in data set [1] (total Met-ase activity of the fraction), the Total is recorded as 2,807 nM/sec.

The record behind these values is US5500344A, “Serine protease and uses thereof” (The United States of America as represented by the …, priority 1992, dated 1996).
